# US20220025010A1 (ANTAG THERAPEUTICS, published 2022)
# Where no end group is shown, it is not given here. The star is where a group is joined. C16 diacid = O=C(O)CCCCCCCCCCCCCCC(=O)*
# T1: human GIP receptor (human, UniProt P48546 22-466)
# T1 sequence (looked up): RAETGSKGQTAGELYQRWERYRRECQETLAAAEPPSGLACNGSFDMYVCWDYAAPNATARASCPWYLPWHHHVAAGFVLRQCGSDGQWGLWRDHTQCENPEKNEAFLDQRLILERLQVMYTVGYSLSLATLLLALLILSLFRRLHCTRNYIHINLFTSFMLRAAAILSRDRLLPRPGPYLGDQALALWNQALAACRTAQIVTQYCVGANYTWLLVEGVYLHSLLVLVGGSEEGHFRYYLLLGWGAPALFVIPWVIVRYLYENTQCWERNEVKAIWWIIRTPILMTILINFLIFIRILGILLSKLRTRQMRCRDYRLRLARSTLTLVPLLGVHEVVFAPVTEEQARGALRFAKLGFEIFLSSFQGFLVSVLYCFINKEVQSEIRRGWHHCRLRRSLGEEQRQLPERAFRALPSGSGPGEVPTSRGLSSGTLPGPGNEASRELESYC
# Target: T1, human GIP receptor
# Test: cell-based or functional assay
binder,measurement,value
GGTFISDYSIAMDRIK(C16 diacid)QQDFVNWLLAQR-NH2 (N-terminus assumed; SMILES CC[C@H](C)[C@H](NC(=O)[C@H](CO)NC(=O)[C@H](Cc1ccc(O)cc1)NC(=O)[C@H](CC(=O)O)NC(=O)[C@H](CO)NC(=O)[C@@H](NC(=O)[C@H](Cc1ccccc1)NC(=O)[C@@H](NC(=O)CNC(=O)CN)[C@@H](C)O)[C@@H](C)CC)C(=O)N[C@@H](C)C(=O)N[C@@H](CCSC)C(=O)N[C@@H](CC(=O)O)C(=O)N[C@@H](CCCNC(=N)N)C(=O)N[C@H](C(=O)N[C@@H](CCCCNC(=O)CCCCCCCCCCCCCCC(=O)O)C(=O)N[C@@H](CCC(N)=O)C(=O)N[C@@H](CCC(N)=O)C(=O)N[C@@H](CC(=O)O)C(=O)N[C@@H](Cc1ccccc1)C(=O)N[C@H](C(=O)N[C@@H](CC(N)=O)C(=O)N[C@@H](Cc1c[nH]c2ccccc12)C(=O)N[C@@H](CC(C)C)C(=O)N[C@@H](CC(C)C)C(=O)N[C@@H](C)C(=O)N[C@@H](CCC(N)=O)C(=O)N[C@@H](CCCNC(=N)N)C(N)=O)C(C)C)[C@@H](C)CC) [AT496],CisBio cAMP agonism % Efficacy,0%
same,CisBio cAMP antagonism % inhib,100%
same,CisBio cAMP antagonism IC50,39.8 nM
same,CisBio cAMP antagonism pIC50,7.4
same,DiscoveRx cAMP antagonism % inhib,100%
same,DiscoveRx cAMP antagonism IC50,12 nM
same,DiscoveRx cAMP antagonism log IC50,-7.9 log M
PGTFISDYSIAMDRIK(C16 diacid)QQDFVNWLLAQR-NH2 (N-terminus assumed; SMILES CC[C@H](C)[C@H](NC(=O)[C@H](CO)NC(=O)[C@H](Cc1ccc(O)cc1)NC(=O)[C@H](CC(=O)O)NC(=O)[C@H](CO)NC(=O)[C@@H](NC(=O)[C@H](Cc1ccccc1)NC(=O)[C@@H](NC(=O)CNC(=O)[C@@H]1CCCN1)[C@@H](C)O)[C@@H](C)CC)C(=O)N[C@@H](C)C(=O)N[C@@H](CCSC)C(=O)N[C@@H](CC(=O)O)C(=O)N[C@@H](CCCNC(=N)N)C(=O)N[C@H](C(=O)N[C@@H](CCCCNC(=O)CCCCCCCCCCCCCCC(=O)O)C(=O)N[C@@H](CCC(N)=O)C(=O)N[C@@H](CCC(N)=O)C(=O)N[C@@H](CC(=O)O)C(=O)N[C@@H](Cc1ccccc1)C(=O)N[C@H](C(=O)N[C@@H](CC(N)=O)C(=O)N[C@@H](Cc1c[nH]c2ccccc12)C(=O)N[C@@H](CC(C)C)C(=O)N[C@@H](CC(C)C)C(=O)N[C@@H](C)C(=O)N[C@@H](CCC(N)=O)C(=O)N[C@@H](CCCNC(=N)N)C(N)=O)C(C)C)[C@@H](C)CC) [AT500],CisBio cAMP agonism % Efficacy,4%
same,CisBio cAMP antagonism % inhib,77%
same,CisBio cAMP antagonism IC50,66.8 nM
same,CisBio cAMP antagonism pIC50,7.2
same,DiscoveRx cAMP antagonism % inhib,90%
same,DiscoveRx cAMP antagonism IC50,29 nM
same,DiscoveRx cAMP antagonism log IC50,-7.5 log M
SGTFISDYSIAMDRIK(C16 diacid)QQDFVNWLLAQR-NH2 (N-terminus assumed; SMILES CC[C@H](C)[C@H](NC(=O)[C@H](CO)NC(=O)[C@H](Cc1ccc(O)cc1)NC(=O)[C@H](CC(=O)O)NC(=O)[C@H](CO)NC(=O)[C@@H](NC(=O)[C@H](Cc1ccccc1)NC(=O)[C@@H](NC(=O)CNC(=O)[C@@H](N)CO)[C@@H](C)O)[C@@H](C)CC)C(=O)N[C@@H](C)C(=O)N[C@@H](CCSC)C(=O)N[C@@H](CC(=O)O)C(=O)N[C@@H](CCCNC(=N)N)C(=O)N[C@H](C(=O)N[C@@H](CCCCNC(=O)CCCCCCCCCCCCCCC(=O)O)C(=O)N[C@@H](CCC(N)=O)C(=O)N[C@@H](CCC(N)=O)C(=O)N[C@@H](CC(=O)O)C(=O)N[C@@H](Cc1ccccc1)C(=O)N[C@H](C(=O)N[C@@H](CC(N)=O)C(=O)N[C@@H](Cc1c[nH]c2ccccc12)C(=O)N[C@@H](CC(C)C)C(=O)N[C@@H](CC(C)C)C(=O)N[C@@H](C)C(=O)N[C@@H](CCC(N)=O)C(=O)N[C@@H](CCCNC(=N)N)C(N)=O)C(C)C)[C@@H](C)CC) [AT498],CisBio cAMP antagonism pIC50,7.9
same,DiscoveRx cAMP agonism Emax,6
same,DiscoveRx cAMP antagonism log IC50,-7.7 log M
